The target in experiment [1] is T1, TMPRSS6 expressed in transfected HepG2 cells (HAMP-luciferase reporter assay) (UniProt Q8IU80 1-811, limits assumed).
T1 sequence (looked up): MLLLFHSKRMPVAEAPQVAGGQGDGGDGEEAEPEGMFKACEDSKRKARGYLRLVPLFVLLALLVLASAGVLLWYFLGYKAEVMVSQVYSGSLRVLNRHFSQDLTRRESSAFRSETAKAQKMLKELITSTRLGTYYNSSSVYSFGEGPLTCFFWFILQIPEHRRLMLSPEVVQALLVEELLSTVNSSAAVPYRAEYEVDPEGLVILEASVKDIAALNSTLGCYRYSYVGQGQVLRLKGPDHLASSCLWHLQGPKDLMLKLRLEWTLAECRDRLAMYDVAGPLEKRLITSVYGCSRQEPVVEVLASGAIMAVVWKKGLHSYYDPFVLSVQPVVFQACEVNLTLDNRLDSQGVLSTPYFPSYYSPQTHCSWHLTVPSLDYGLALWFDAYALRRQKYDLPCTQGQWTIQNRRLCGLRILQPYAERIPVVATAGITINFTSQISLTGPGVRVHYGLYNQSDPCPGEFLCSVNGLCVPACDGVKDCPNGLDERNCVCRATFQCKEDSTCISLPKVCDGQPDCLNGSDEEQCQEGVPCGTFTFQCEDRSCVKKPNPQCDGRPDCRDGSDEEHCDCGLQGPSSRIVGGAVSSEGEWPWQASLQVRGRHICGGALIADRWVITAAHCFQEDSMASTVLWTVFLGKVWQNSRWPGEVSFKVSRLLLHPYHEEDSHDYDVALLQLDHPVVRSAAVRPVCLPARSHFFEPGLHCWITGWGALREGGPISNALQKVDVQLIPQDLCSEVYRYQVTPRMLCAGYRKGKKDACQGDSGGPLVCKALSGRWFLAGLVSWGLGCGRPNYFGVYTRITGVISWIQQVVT
In words: cell-based or functional assay.

The target of experiment [2] is T2, matriptase-3 (TMPRSS7) over-expressed in HEK293T cells (human, UniProt Q7RTY8 1-843).
T2 sequence: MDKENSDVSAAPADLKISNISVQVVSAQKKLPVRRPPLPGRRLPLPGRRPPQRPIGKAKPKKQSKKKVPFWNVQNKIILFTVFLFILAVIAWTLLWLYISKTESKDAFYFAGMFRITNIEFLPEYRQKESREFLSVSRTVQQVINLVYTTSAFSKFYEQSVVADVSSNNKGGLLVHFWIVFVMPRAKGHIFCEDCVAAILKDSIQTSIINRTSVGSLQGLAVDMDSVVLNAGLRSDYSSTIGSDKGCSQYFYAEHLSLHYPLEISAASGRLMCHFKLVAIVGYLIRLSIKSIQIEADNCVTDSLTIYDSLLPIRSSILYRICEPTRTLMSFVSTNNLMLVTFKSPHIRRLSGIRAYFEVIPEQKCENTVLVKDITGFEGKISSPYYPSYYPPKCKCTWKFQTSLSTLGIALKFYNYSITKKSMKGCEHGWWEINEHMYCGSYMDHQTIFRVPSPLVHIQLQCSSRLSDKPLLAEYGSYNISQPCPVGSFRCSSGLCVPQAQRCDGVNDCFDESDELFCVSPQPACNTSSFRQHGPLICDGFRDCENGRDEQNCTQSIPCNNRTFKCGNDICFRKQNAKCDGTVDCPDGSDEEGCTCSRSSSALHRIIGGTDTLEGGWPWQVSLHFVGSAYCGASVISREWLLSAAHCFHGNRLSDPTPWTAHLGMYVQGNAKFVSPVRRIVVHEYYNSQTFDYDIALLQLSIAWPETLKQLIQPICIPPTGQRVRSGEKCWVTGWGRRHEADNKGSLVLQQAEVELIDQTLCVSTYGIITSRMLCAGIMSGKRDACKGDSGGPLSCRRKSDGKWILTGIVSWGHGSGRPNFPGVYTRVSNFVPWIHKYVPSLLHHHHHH
The experiment can be described thus: FACS on permeabilized HEK293T cells over-expressing matriptase-3 (TMPRSS7). The source says:
To determine if anti-TMPRSS6 antibodies bind to homologous matriptases, HEK293T cells over-expressing matriptase (ST14) (SEQ ID NO: 100) (FIGS. 5B, 5E, 5H, 5K, 5N, 5Q), and HEK293T cells over-expressing matriptase-3 (TMPRSS7) (SEQ ID NO: 101) (FIGS. 5C, 5F, 5I, 5L, 5O, 5R) were collected (generated in house). HEK293T cells stably expressing human TMPRSS6 (matriptase-2) (SEQ ID NO: 97) (generated by LakePharma Inc as described above, FIGS. 5A, 5D, 5G, 5J, 5M, 5P) were used as a positive control and HEK293T cells (FIGS. 5A-5R) were used as a negative control (as described above). Cells were blocked and permeabilized with dPBS+3% BSA+0.1% Tween-20 before incubation with various anti-TMPRSS6 antibodies diluted in dPBS+3% BSA+0.1% Tween-20. Cells were incubated with anti-TMPRSS6 antibodies and their humanized variants at a concentration of roughly 1 μg/ml for 1 hr. After incubation, cells were washed with dPBS and incubated with goat anti-mouse IgG conjugated with AlexaFluor-488 (Invitrogen, FIGS. 5A-5I) or goat anti-human IgG conjugated with Allophycocyanin (APC) (Jackson Immuno Research, FIGS. 5J-5R) as a 2° antibody. At last, cells were washed with dPBS and re-suspended with dPBS+1 mM EDTA, and then subjected to FACS analysis using a NOVOCYTE® Flow Cytometer. Bound antibody was determined by excitation at 488 nm and measurement of emission (FITC-A) at 530 nm (FIGS. 5A-5I) or by excitation at 640 nm and measurement of emission (APC-A) at 675 nm (FIGS. 5J-5R). Results for these assays are shown in histogram plots in FIGS. 5A-5R.

B1: humanized anti-TMPRSS6 antibody variant hzMWTx-003 Var (antibody, human IgG1, kappa, L234A L235A, V domains shown)
VH: QVQLVQSGAEVKKPGASVKVSCKASGFNIEDYYMHWVRQAPGQRLEWMGRIDPEDAETTYSPKFQGRVTIIPDTSANTAYMELSSLRSEDTAVYYCARSIYLDPMDYWGQGTLVTVSS
VL: DIQMTQSPKSLSASVGDRVTITCRASQDVTTALAWYQQKPGQSPKLLIYWATTRHSGVPSRFSGSGSGTDFTLTISSLQPEDFATYYCQQHYSTPYTFGQGTKLEIKR
notes: Human IgG1 / kappa
As to B1, in experiment [1], the “EC50 of the increase of HAMP promoter activity (HAMP-luciferase reporter assay, HepG2 cells expressing TMPRSS6, hBMP6)” value turned out to be 0.3 µg/mL. Also, in experiment [2], the binding result is on record as “no binding (tested: roughly 1 µg/ml)”.

B2: MWTx-002 anti-TMPRSS6 monoclonal antibody (antibody, mouse IgG2b, kappa, V domains shown)
VH: EVQLQQSGAELVKPGASVKLSCTASGFNIKDYYIHWVKERTEQGLEWFGRIDPEDGESEYAPKFQGKATLTADTSSNTAYLQLSSLTSEDTAVYYCTRGDSMMVTYFDYWGQGTTLTVSS
VL: DIVMTQSHKFMSTSVGDRVSITCKASQDVSTAVAWYQQKPGQSPKLLIYWAFTRHTGVPDRFTSTGSGTDYALTISSVQAEDLALYYCQQHYRSPWTFGGGTKLEIKR
notes: Mouse monoclonal antibody from hybridoma (ATCC PTA-126760)
In the case of B2, the “EC50 of the increase of HAMP promoter activity (HAMP-luciferase reporter assay, HepG2 cells expressing TMPRSS6, hBMP6)” value in experiment [1] came out at 1 µg/mL. Further, in experiment [2], the binding result is “no binding (tested: roughly 1 µg/ml)”.

B3: humanized anti-TMPRSS6 antibody variant hzMWTx-002 Var (antibody, human IgG1, kappa, N297A, V domains shown)
VH: EVQLVQSGAEVKKPGASVKVSCKASGFNIKDYYIHWVRQATGQGLEWMGRIDPEDAESEYAPKFQGRVTITADTSTDTAYMELSSLRSEDTAVYYCTRGDSMMVTYFDYWGQGTLVTVSS
VL: DIQMTQSPSSLSASVGDRVTITCKASQDVSTAVAWYQQKPGKAPKLLIYWAFTRHTGVPSRFSGSGSGTDYALTISSLQPEDFATYYCQQHYRSPWTFGGGTKVEIKR
notes: Human IgG1 / kappa
Take B3: in experiment [1], the “EC50 of the increase of HAMP promoter activity (HAMP-luciferase reporter assay, HepG2 cells expressing TMPRSS6, hBMP6)” value worked out at 0.3 µg/mL. For the same molecule, the binding result in experiment [2] is “no binding (tested: roughly 1 µg/ml)”.

B4: MWTx-003 anti-TMPRSS6 monoclonal antibody (antibody, mouse IgG2b, kappa, V domains shown)
VH: EVQLQQSGAELVKPGASVKLSCTASGFNIEDYYIHWVKERTEQGLEWIGRIDPEDGETTYAPQFQGKATIIPDTSSNTAYMQLSSLTSEDAAVYYCARSIYLDPMDYWGQGTSVTVSS
VL: DIVMTQSHKFMSTSVGDRVSITCKASQDVTTAVAWYQQKPGQSPKILIYWATTRHTGVPDRFTGSISGTTYILTISSVQAEDLALYYCQQHYSTPYTFGGGTKLEIKR
notes: Mouse monoclonal antibody from hybridoma (ATCC PTA-126761); The recombinant version r4K12B has the same HC and LC; also called r4K12B; recombinant MWTx-003
For the molecule B4, the “EC50 of the increase of HAMP promoter activity (HAMP-luciferase reporter assay, HepG2 cells expressing TMPRSS6, hBMP6)” value in experiment [1] was 2 µg/mL. The binding result in experiment [2] is reported as “no binding (tested: roughly 1 µg/ml)”.

B5: MWTx-001 anti-TMPRSS6 monoclonal antibody (antibody, mouse IgG2a, kappa, V domains shown)
VH: QVQLQQPGAELAKPGASVKMSCKASGYTFTSYWITWVKQRPGQDLEWIGNIYPGSGSTYYNEKFKSKATLTVDTSSRTAYMQLSSLTSADSAVYYCAPYDSDYAMDYWGQGTSVTVSS
VL: DIKMTQSPSSMYASLGERVTITCKASQDINNYLSWFQQKPGKSPKTLIYRANRLVDGVPSRVSGSGSGQDYSLTISSLEYEDVGIYFCLQYDEFPLTFGAGTKLELKR
notes: Mouse monoclonal antibody from hybridoma (ATCC PTA-126759)
Take B5: in experiment [1], the “EC50 of the increase of HAMP promoter activity (HAMP-luciferase reporter assay, HepG2 cells expressing TMPRSS6, hBMP6)” value was found to be 3 µg/mL. In addition, the binding result in experiment [2] is reported as “no binding (tested: roughly 1 µg/ml)”.

B6: humanized anti-TMPRSS6 antibody variant hzMWTx-001 Var (antibody, human IgG1, kappa, N297A, V domains shown)
VH: EVQLVQSGAEVKKPGASVKVSCKASGYTFTSYWITWVRQAPGQRLEWIGNIYPGSGSTYYNEKFKSKATITRDTSSRTAYMELSSLRSEDTAVYYCAPYDADYAMDYWGQGTLVTVSS
VL: DIQMTQSPSSLSASVGDRVTITCKASQDISNYLSWFQQKPGKAPKLLIYRANRLVEGVPSRFSGSGSGTDFTLTISSLQPEDFATYFCLQYDEFPLTFGGGTKVEIKR
notes: Human IgG1 / kappa
Regarding B6, in experiment [1], the “EC50 of the increase of HAMP promoter activity (HAMP-luciferase reporter assay, HepG2 cells expressing TMPRSS6, hBMP6)” value came to 0.8 µg/mL. For the same molecule, the binding result in experiment [2] was “no binding (tested: roughly 1 µg/ml)”.

For the origin of these results see patent US20250136718A1 (MABWELL THERAPEUTICS, published 2025).
